Assay results taken from the nanobody polyreactivity screen of Harvey et al. (2022).

Assay: yeast display, Sf9 membrane polyspecificity reagent, FACS + sequencing; frameworks hold sequencing errors
Method in brief: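 A synthetic nanobody library was expressed on Saccharomyces cerevisiae BJ5465 by galactose induction for 36–48 hours. The library was stained for 1 hour at 4 °C with 10% biotinylated, detergent-solubilized Sf9 membrane reagent and enriched with streptavidin microbeads before FACS. Low and high (top ~1%) gates were set on anti-HA fluorescence for expression and streptavidin fluorescence for reagent binding, and each polyreactivity label reflects the gate of origin.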

Row | Sequence | polyreactivity (PSR sort gate)
1 | QVQLVESGGGLVQAGGSLRLSCAASGSIFDFYAMGWYRQAPGKERELVAAISWSGGNTYYADSVKGRFTISRDNAKNTVYLQMNSLKPEDTAVYYCNRGSIWRLLTGDFDYWGQGTQVTVSS | low polyreactivity
2 | QVQLVESGGGLVQAGGSLRLSCAASGRILPGNAMGWYRQAPGKERELVATITNGGRTYYADSVKGRFAISRDNAKNTVYLQMNSLKPVDTAVYYCAAVVVRFIYVYFEFEWGQGTQVTVSS | low polyreactivity
3 | QVQRVESGGGLVQAGGSLRLSCAASGYIFKYYAMGWYRHSPGKVRELVAAITGGVSTNYADSVKGRFTISRDNAKNTVYLQMNSLKPEDTAVYYCAAAITPSYTGSEYDYWGQGTQVTVSS | low polyreactivity
4 | QVQLVESGGGLVQAGGSLSLSCAASGRIFVSYAMGWYRQAPGKERELVAAISYSGGSTYYADSVKGRFTISRDNAKNTVYLQMNSLKPEDTAVYYCAKDGGVYAPAGDDDYWGQGTQVTVSS | low polyreactivity
5 | QVQLVESGGGLVQAGGSLRLSCAASGSIFTPNAMGWYRQAPGKERALVAAISSSSDRTYYADSVKGRFTISRDNAKNTVYLQMNSLKPEDTAVYYCAAYAQKRYYWGQGTQVTVSS | high polyreactivity
6 | QVQLVESGGGLVQAGGSLSLICAASGNTFPPYAMGWYRQAPGKERELVAAISCGGRTYYADSVKGRFTISRDNAKNTVYLQMNSLTPEDTAVYYCAVYVPNYYSYHYDYWGQGTQVTVSS | high polyreactivity
7 | QVQLVESGGGLVQAGGSLRLSCAASGRTFRFYAMGWYRQAPGKERELVASISSSGGSTYYADSVKGRFTISRDNAKNTVYLQMNSLKPEDTAVYYCNADVTNWEDDYYYWGQGTQVTVSS | high polyreactivity
8 | QVQLVESGGGLDQAGGSLRLSCAASGNIFSDSTMGWYRQAPGKEIELVAAISGDGGTTYYADSVKGRFTISRDNAKHTVYLQMNSLKPEDTAVYFCAGDGYYDAYDQFFIVYYEYDYWGQGTQVTVSS | low polyreactivity
9 | QVQLVESLGGLVQAGGRLRLSSAASGLIFPRNAMGWYRQAPGKERELVAVISRSGTTTYYADSVKGRFTISRDNAKKTVYFQMNSLIPEDTAVYYCASAPSHVYRARFYYWGQGTQVTVSS | high polyreactivity
10 | QVQLVESGGGLVQAGGSLRLSCAASGSIFYSNMGWYRPAPGKEREFVAAISGSGVRTYYADSVKGRFTISRDNAKKTVYLQMNSLKPEDTAVYYCNAGRRQDNRYNYWGQGTQVTVSS | high polyreactivity
11 | QVQLVESGGGLVQAGGSLRLICAASGFIIYIYAMGWYRQAPGKERELVAAISRSGVGTYYADSVKGRFTISRDNAKNTVYLQMNSLKPEDTAVYYCARSRSGYRYDYWGQGTQVTVSS | high polyreactivity
12 | QVQLVESGGGLVQAGGSLRLSCAASGITFGFNAMVWYRQAPGKETELVAAITYRGGSTYYADSVKGRFTISRDNAKNTVYLQMNSLKPEDTAVYYCAADIGRHTDNYDPRYDYWGQGTHVTVSS | low polyreactivity
13 | QVHLVESGGGLVQAGGSLRLSSAASGITFYGNAMGWYRQAPGKERELVATISSGGSTNYADSVKGRFTISRDNAKNTVYLQMHSLKPEDTAVYYCNAAPDVNRDYEGSGDYWGQGTQVTVSS | low polyreactivity
14 | QVQLVETGGGLVQAGGTLRLSCAPSGRIFPYNDMGLYRQAPGKERELVAANSSGGTTDYADSVKGRFTISRDNAKNTVYLQMNSLKPEDTAVYYCAATYVYWTWGYDYWGQGTQVTVSS | low polyreactivity
15 | QVQLVESGGGLVQAGRSLRLSCAASGLIFPWNAMGWYRQAPGKQRELVAAINGRDGSTYYADSVKGRFTISRDNAKNTVYLQMNSLKPEDTAVYYCAKGPSGVRSYREYDSWGQGTQVTVSS | low polyreactivity
16 | QVQLVESGGGLVQAGGSLRLSCAASGRTFYGYAMGWYRQAPGKERELVAAISKTGGSTYYADSVKGRFTISRDNAKNTVYLQMNSLKPEDTAVYYCNARRIYRLEYDSWGQGTQVTVSS | high polyreactivity
17 | QVQLVESGGGLVQAGGSLRLSCAASGSIFSGNVIGWYRQAPGKERELVAAISGRGGSTYYADSVKGRFTISRDNAKNTVYLQMNSLKPEDTAVYYCAAVYLKTYYWGQGTQVTVSS | high polyreactivity
18 | QVQLVESGGGLVQAGGSLRLSCAASGRIFYRYARGWYRQAPGKERELVAAITSGTSTNYADSVKGRFTFSRDNAKNTVYLQMNSLKPEDTAVYYCAKRYYCKYAEYDYWGQGTQVTVSS | high polyreactivity
19 | QVQLVESGGGLVQAGGSLRLSCAASGIIFVYYTMGWYRQAPGKERELVAAITSGGSTYYADSVKGRFTISRDNAKNTVYLQMNSLKPEDTAVYYCAAVGRPPYAGDRGYWGQGTQVTVSS | high polyreactivity
20 | QVQLVESGGGLVQAGGSLRLSCAASGFIFYGYAMGWSRQAPGKERELVAAIRYSGTSTYADSVKGRFTISRDNAKNTVYLQMNSLKPEDTAVFYCAKKYLYYGVPSYKYWGQGTQVTVSS | high polyreactivity
21 | QVHLVDSGGGLVQAGGSLSLSCAYSGSIFLTNAMGWYRHAPGKERELVDAITGDGSTNYADSVKGRFTISRDNAKNTVYLKMNSLIPEDTAVYYCDKDRGWSQWVDYDYWGQGTQVTVSS | low polyreactivity
22 | QVQLVESGGGLVQAGGSLRLSCAASGSTFFYYAMGWYRQAPGKERAFVAAISSSVGTTYYADSVKGRFTISRDNAKNTVYLQMNRLKPVDTAVYYCAKASSATRYVQLRQDYDYWGQGTQVTVSS | low polyreactivity

Row | Sequence | polyreactivity (PSR sort gate)
23 | QVQLVESGGGLVQAGGSLRLSCPPSGYTISHYAMGWYRQAPGKERELVAGITWSGGSTYYADSVKGRFTISRDNAKNTVYLQMNSLKPEDTSVYFCAAKYYWYYSYSGIPLFDYWGQGTQVTVSS | low polyreactivity
24 | QVQLVESGGGLVQAGGSLRLSCAASGLTFRYYTMGLYRQAPGKERELVASITSGGITYYADSVKGRFTISRDNAKNTVYLQMYSLKPEDTAVYYCAKGSYRTTYGALGVKYGYWGQGTQVNVSS | high polyreactivity
25 | QVQLVESGGGLVQAGGSLRLICAASGYTFSFYAMGWYIQAPGKERELVAAISRSGGSTYYADSVKGRFTISRDNAKNTVYLQMNSLKPEYTAVYYCAARWPGAYHEYGYWGQGTQVTVSS | high polyreactivity
26 | QVQLVESGGGLVQAGGSLRLSCAASGFTFDWNGMGWYRQAPGKEREFVAGITWSGTSTYADSVKGRFTISRDNAKNTVYLQMNSLKPEDTAVYYCAAVSSKGNRHEYDYWGQGTQVTVSS | low polyreactivity
27 | QVQLVESGGGLVQAGGSLRLSCAASGRIFSIYAMGWYRQAPGKERELVAAIRSVGDTNYADSVKGRFTISRDNAKNTVYLQMNSLNPEDTAVYYCAAGTSDGGYHYDFWGQGSQVTVSS | high polyreactivity
28 | QVQLLESGGGLVQAGGSLRLSCAASGFIFDESAKGRYRQAPGKERQLVAAISWSGSRTYYADSVKGRFTISRDNAKNTVYLQMNSLKPEDTAVYYCAKVTGVGAGRRNYWGQGTQVTVSS | low polyreactivity
29 | QVQLVESRGGLVQAGGSLRLSCAASGRIYNYYEMGWYRQAHGKESELVAAITWRGGTTYYADSVKGRFTISRDNAKNTVYLQMNSLKPEDTAVYYCATTPRSYRFPPPVGYGYWGQGTQVTVSS | high polyreactivity
30 | QVHLVESGGGLVQAGGSLRLSCAACGRTFRSNALGWYSQAPGTEREFVAALSGRGGITYFADSVTGRFSISRDNAKNTVYLQMNSLKPEDTAVDYCNRDVKFHDYVYVTGINSPGYNYWGQGTQVTVSS | low polyreactivity
31 | QVQLVESGGGLVQAGGSLRLSCAASGRIFYWNVMGWYRQAPGKERELVAAISSSGASTSYADSVKGRFTISRDNAKNTVYLQMNSLKPEDTAVYHCAARTRRNYRQYNYWGQGTQVTVSS | high polyreactivity
32 | QVQLVESGGGLVQAGGSLRLSSAASGSTIVLYTMGWYRQAPGKEWELVAAITNGTRTYYADSVKGRFTISRDNAKNTVYLQMNSLKPQDTAVYYCAVDGVKRGADLFYYWGHGTQVTVSS | high polyreactivity
33 | QVQLVESGGGLVQAGGSLRLICAASGSIFRINAMGWYRQAPGKEMELVAAITGRVGSTYYADSVKGRFTISRDNAKNTVYLQMNSLKPEDTAVYYCAARAGSSRYTREYRYDYWGQGTQVTVSS | high polyreactivity
34 | QVQLVDSCGGLVQAGGSLSLSCAASGRTFTRYAMGWYRQAPGKERELVASITNGGGTYYADSVKGRFTISRDNAKNTVYLQMNSLKPEDTAVYYCAKAERVTSHIYYSWGQGTQVTVSS | low polyreactivity
35 | QVQLVESGGGLVQAGGSLRLSCAASGRTFWFYDMGWYRQAPGKEREFVASITSSGGSTYYADSVKGRFTISRDIAKNTVYLQMNSLKPEDTAVYYCAASFYWTTRYSREYDYWGQGTQVTVSS | high polyreactivity
36 | QVQLVESGGGLVQAGGSLRLSCAASGRIFAFYALGLYRQAPGKEREFVAAITYSGGNTNYADSVKGRFTISRDNAKNTVYLQMNSLKPEDTAVYYCAADLVYGVYYQEDYWGQGTQVTVSS | low polyreactivity
37 | QVQLVESGGGLVQAGGSLRLSCAASGFTFYAYAMGWYRQAPGKERELVAAISSRGGRTYYADSVKGRFTISRDNAKNTVYLQMNSLKPEDTAVYYCIVPYYSFRELSSYYWGQGTQVTVSS | high polyreactivity
38 | QVQLVESGGGLVQAGGSLRLSCAASGFIFRVYGMGCYRQATAKERELVAAMTGGCGSTYYADSVKGRFTISRDNAKNTVYLQMNSLKPEDTAVYYCAAVRYSGVRYRYGIYSDTMDYWGQGTQVTVSS | high polyreactivity
39 | QVQLVESVGVLVQAGGSLRLSSAASGGILPRYAMGWYRQAPGKERELVAVITRGGSTYYADSVKGRFTISRDNAKNTVYLQMNSLKPEDNAVYYFAKYRYQTGIFYYWGQGTQVTVSS | high polyreactivity
40 | QVQLVESGGGLVQAGGSLRLSCAASGSIFEDYAMGWYRQAPGKERELDAAIDWGDGDTYYADSVKGRFTISRDNAKNSVYLQMNSLKPEDTAVYYCAADLVGYSGDYFDEEYYWGQGTQVTVSS | high polyreactivity
41 | HVHLVESGGGLVQAGGSLRLSCAASGRTFSTYAMGRYRQAPGKERELVATIRVSGSSTYYADSVKGRFTISRDNAKNTVYLQMNSLKQEDTEVYYCANRGLSRYYDYYYWGQGTQVTVSS | high polyreactivity
42 | QVQLVESGGGLVQAGGSLRLSCAASGRIFRWYAMGWYRQAPGKERELVAAISWSGGRTYYADSVKGRFTISRDNAKNTVYFQMNSLKPEDTAVYYCAAEGAIPRYYIGGVDYWGQGTQVTVSS | high polyreactivity
43 | QVQLVESGGGLVQAGGSLRLSCAASGLTFKSYAMGWYRQAPGKERELVAVISSSGGRTYYADSVKGRFTISRDNAKNTVYLQMNSLKPEDTAVYYCAADGSYGKWGGHAMYYWGQGTQVTVSS | high polyreactivity
